# Reference: patent publication US20240209070A1, “COTH3 BINDING AGENTS AND USES THEREOF” (priority 2021, published 2024)
# T1: Mucorales CotH2 (Rhizopus delemar, UniProt I1C4E4)
# T1 sequence (I1C4E4 whole entry, looked up): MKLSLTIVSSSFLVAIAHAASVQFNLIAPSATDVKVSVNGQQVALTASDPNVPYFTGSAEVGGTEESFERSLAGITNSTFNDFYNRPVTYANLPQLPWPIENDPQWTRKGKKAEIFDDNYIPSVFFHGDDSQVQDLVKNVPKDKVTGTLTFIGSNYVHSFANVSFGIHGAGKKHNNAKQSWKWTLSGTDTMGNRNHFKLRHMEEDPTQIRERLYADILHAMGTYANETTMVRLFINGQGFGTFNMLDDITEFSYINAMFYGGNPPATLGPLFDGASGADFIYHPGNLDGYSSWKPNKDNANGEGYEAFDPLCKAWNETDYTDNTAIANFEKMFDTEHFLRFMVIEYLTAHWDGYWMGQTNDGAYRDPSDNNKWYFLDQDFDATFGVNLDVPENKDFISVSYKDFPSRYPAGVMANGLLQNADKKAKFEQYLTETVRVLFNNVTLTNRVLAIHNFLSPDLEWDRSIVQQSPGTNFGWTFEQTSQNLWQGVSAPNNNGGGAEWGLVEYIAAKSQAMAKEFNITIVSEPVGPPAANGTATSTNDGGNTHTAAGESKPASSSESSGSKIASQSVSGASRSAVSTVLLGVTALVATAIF
# B1: mAb: mouse monoclonal IgG1 kappa anti-CotH3 antibody, clone C2, raised against peptide SEQ ID NO:34 (antibody, V domains shown)
# VH: DLQLQESGPSLVKPSQTLSLTCSVTGDSITSGYWNWIRKFPGNKLEHMGYIKYSGRTFYNPSLKSRVSITRDTSKNQYYLQLNSVTSEDTATYYCASRGYWGQGTTLTVSS
# VL: DVVMTQTPLSLSVTIGQPASISCKSSQSLLYSNGKTYLNWLQQRPGQAPKLLMFQVSKPGIPDRFSGSGSETDFTLKISRVEAEDLGVYYCLQGTYFPHTFGAGTKVEIK
# Key:
# Mucorales CotH2 = biological target: T1, Mucorales CotH2
# CotH3 antigen = CotH3 antigen (Rhizopus delemar, UniProt I1CFE1); settings: Protein G sensor, CotH3 6.25-400 nM, 25° C.
# Chain of CotH3 antigen (I1CFE1 18-601): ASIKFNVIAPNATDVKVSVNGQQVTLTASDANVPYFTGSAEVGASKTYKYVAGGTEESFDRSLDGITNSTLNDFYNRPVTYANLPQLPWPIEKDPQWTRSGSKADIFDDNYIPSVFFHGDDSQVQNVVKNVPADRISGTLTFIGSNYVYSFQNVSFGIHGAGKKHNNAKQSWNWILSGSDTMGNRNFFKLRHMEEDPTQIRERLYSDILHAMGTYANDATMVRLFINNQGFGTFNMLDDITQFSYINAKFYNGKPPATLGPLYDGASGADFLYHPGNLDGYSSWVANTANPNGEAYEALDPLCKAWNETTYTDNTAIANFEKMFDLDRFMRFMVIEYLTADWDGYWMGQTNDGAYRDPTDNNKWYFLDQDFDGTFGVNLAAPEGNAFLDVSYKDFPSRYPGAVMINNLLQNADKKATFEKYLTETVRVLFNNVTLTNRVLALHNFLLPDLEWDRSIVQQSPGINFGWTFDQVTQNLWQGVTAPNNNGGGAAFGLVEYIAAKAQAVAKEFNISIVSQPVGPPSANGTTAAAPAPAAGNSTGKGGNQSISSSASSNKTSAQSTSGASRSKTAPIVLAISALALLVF
# Protocol: The purified preparations were then used to assess the affinity of each clone for the CotH3 antigen by biolayer interferometry using Gator system (ProbeLife). Under the assumption that the CotH3 antigen provided by Vitalex behaves as a normal soluble monomeric protein, a Protein G coated sensor probe (ProbeLife, catalog #160006) was loaded with the bivalent antibody test clone at a concentration of 5 μg/ml in ProbeLife's kinetic buffer (PBS pH 7.4, 0.02% BSA, 0.002% Tween-20, 0.005% NaN3). A serial dilution of CotH3 antigen of 400, 200, 100, 50, 25, 12.5, 6.25 nM and buffer only (0 nM) was added to the sensors. All reactions were performed at 25° C. The values are chosen when three or more concentrations yield the same kinetic values. The original murine mAb was provided by Vitalex as the reference.
# [1] = intravenous, single dose 10 μg, 30 μg or 100 μg, 1-168 hours
# Protocol: Pharmacokinetics study: Neutropenic mice were infected intratracheally with 25 μl of PBS containing 2.5×10^5 spores of Rhizopus delemear. […] After infection, mice were treated daily with 5 mg in 0.2 ml of irrigation water with ceftazidime subcutaneously to prevent bacterial superinfection. […] Mouse serum samples were collected at the time points: 1 hour, 2 hours, 4 hours, 8 hours, 24 hours, 72 hours, 120 hours, and 168 hours after the antibody injection. The antibody concentration in the mouse serum samples was detected by ELISA, with Flag-CotH3 as the coating protein, and anti-human-IgG-HRP as the secondary antibody.
# R. delemar 99-880 = experiment: Neutropenic mouse model of mucormycosis, R. delemar 99-880 infection; assay type: in vivo, Rhizopus delemar; settings: single dose of 30 μg 24 h after infection, lungs harvested day 4
# Protocol: Mouse models: Neutropenic mice model used male ICR mice (20 to 23 g) obtained from Envigo (NJ). Mice were injected with cyclophosphamide (200 mg/kg, given intraperitoneally) and cortisone acetate (500 mg/kg, given subcutaneously) on days −2, +3, and +8 relative to infection^(1).
# Antibody treatment with a single dose of 30 μg humanized antibody, or isotype human IgG started 24 or 48 hours after infection and was administered by intraperitoneal injection. Time to moribundity (equated with survival) served as the primary endpoint. As a secondary endpoint and in some experiments, fungal burden in the lungs and brains (primary and secondary target organs) was determined 96 hours after infection by quantitative PCR assay, as we previously described^(3). Values were expressed as log10 spore equivalent per gram of tissue. Histopathological examination was carried out on sections of the harvested organs after fixing in 10% zinc formalin. The fixed organs were embedded in paraffin, and […] sections were stained with hematoxylin and eosin.
# Mucorales CotH3 = Mucorales CotH3 (Rhizopus delemar, UniProt I1CFE1)
# Chain of Mucorales CotH3 (I1CFE1 18-601): as above
molecule,measurement,setting,value
B1,specific binding to CotH2,Mucorales CotH2,bound specifically
same,Koff (S^−1),CotH3 antigen,1.41E−3 S^−1
same,Kon,CotH3 antigen,23900 M⁻¹ s⁻¹
same,Rmax,CotH3 antigen,0.69
same,pharmacokinetics (serum antibody concentration),[1],Dose dependent pharmacokinetics
same,lung histology,R. delemar 99-880,no fungal elements and normal lung architecture
same,specific binding to CotH3,Mucorales CotH3,bound specifically
